Test [1] deals with T1, human TIGIT expressed on cells (human, UniProt Q495A1 22-244).
T1 construct: whole, on cells; cDNA encoding human TIGIT in pCHO1.0 for CHO cells; also called CHO-huTIGIT cells
T1 sequence (looked up): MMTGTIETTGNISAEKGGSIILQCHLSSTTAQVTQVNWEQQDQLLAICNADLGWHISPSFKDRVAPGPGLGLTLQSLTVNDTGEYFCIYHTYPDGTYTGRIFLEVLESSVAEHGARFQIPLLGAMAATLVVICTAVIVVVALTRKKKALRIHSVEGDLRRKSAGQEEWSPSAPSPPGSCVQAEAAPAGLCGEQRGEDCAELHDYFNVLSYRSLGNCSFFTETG
Briefly: flow cytometry, CHO-huTIGIT cells. From the text: (§1) Specifically, CHO cells overexpressing human TIGIT (CHO-huTIGIT cells), CHO cells overexpressing cynomolgus TIGIT (CHO-cynoTIGIT cells) and CHO cells overexpressing mouse TIGIT (CHO-muTIGIT cells) were generated by transfection of the pCHO1.0 vector (purchased from Invitrogen) with cDNA encoding human TIGIT, cynomolgus TIGIT and mouse TIGIT cloned into the multiple cloning site (MCS), respectively, followed by pressure screening. The overexpressing cells were expanded and adjusted to an appropriate cell density, and added to a 96-well flow cytometry plate. After centrifugation, the cells were added with a gradiently diluted sample to be tested, and incubated at 4° C. for 30 minutes. The cells were washed twice with PBS, and added with a fluorescent secondary antibody correspondingly diluted to an appropriate concentration, then incubated at 4° C. for 30 minutes, and washed twice with PBS. Cells were resuspended with PBS, and detected on a CytoFlex flow cytometer, and the corresponding MFI was calculated. Graphpad software was used for graphical analysis to obtain EC₅₀ values.

Test [2] concerns the target T1, human TIGIT expressed on cells. As to the kind of experiment: flow cytometry, competition with human CD155-mouse IgG2a Fc (2 ug/mL) on CHO-huTIGIT cells. Here is the method:
(§2) Specifically, the CHO-huTIGIT cells were expanded and adjusted to a cell density of 2×10⁶ cells/mL, added to a 96-well flow plate at 100 μL/well, and centrifuged for later use. The purified monoclonal antibodies were diluted 3-fold with PBS starting at 400 nM for a total of 12 concentration gradients. The diluted sample was added at 60 μL/well to the cells-carrying 96-well flow plate, and incubated at 4° C. for 30 minutes. […] APC-conjugated goat anti-mouse IgG antibody diluted 100-fold with PBS was added at 100 μL/well, incubated at 4° C. for 30 minutes, and washed twice with PBS. Cells were resuspended with PBS at 100 μL/well, and detected on a CytoFlex flow cytometer, and the corresponding MFI was calculated.
(In general: Flow cytometry measures light scatter and fluorescence of single cells or particles in a stream.)

The target of test [3] is T2, cynomolgus TIGIT overexpressed on CHO cells (cynomolgus, UniProt A0A7N9I9V4 89-312).
T2 construct: whole, on cells; also called CHO-cynoTIGIT cells
As to the kind of experiment: flow cytometry on CHO cells overexpressing cynomolgus TIGIT, median fluorescence intensity PE-A; unit from the concentration axis.
From the text: as §1

Test [4] deals with T2, cynomolgus TIGIT overexpressed on CHO …. Briefly: flow cytometry, CHO-cynoTIGIT cells.
From the text: as §1

The target in test [5] is T3, cynomolgus monkey TIGIT-his protein (cynomolgus monkey).
T3 construct: also called Cynomolgus TIGIT-his; not shown: his tag
Briefly: BLI (ForteBio), IgG on AHQ sensor, 100 nM TIGIT-his, monovalent, 1:1 model. Here is the method:
(§3) Biofilm layer optical interference technology (ForteBio) was used to determine the binding and dissociation […] values of the anti-TIGIT monoclonal antibodies obtained in Example 1 to human, cynomolgus monkey and mouse TIGIT. Fortebio affinity measurements were performed according to existing methods (Este, P et al., High throughput solution-based measurement of antibody-antigen affinity and epitope binning. Mabs, 2013.5(2): p 270-8).
(§4) The antibody-loaded sensor was incubated in 100 nM TIGIT-his antigen to the plateau phase, and then the sensor was transferred to an analysis buffer and incubated for at least 2 minutes for measuring dissociation rate. The kinetic analysis was performed using a 1:1 binding model.

The next test addresses T4, human TIGIT-his protein (human, UniProt Q495A1 22-141).
T4 construct: not shown: his tag
T4 sequence: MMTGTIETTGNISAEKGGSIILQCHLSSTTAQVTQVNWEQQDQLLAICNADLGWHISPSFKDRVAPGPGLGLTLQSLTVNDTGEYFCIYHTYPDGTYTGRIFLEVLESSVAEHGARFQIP
The description is as above. The method, then:
as §3, §4

The target of test [6] is T1, human TIGIT expressed on cells. As to the kind of experiment: flow cytometry on activated human primary T cells (TIGIT), readout positive cell (%); unit from the concentration axis. The source says: The binding activity of the anti-TIGIT antibody of the present invention to TIGIT on the surface of activated T cells was detected based on the flow cytometry detection method.
Specifically, human PBMC were sorted according to the experimental protocol provided by […] Company (stemcell, Cat. No.: #17951C) to obtain human total T cells. […] The activated T cells were adjusted to an appropriate cell density and added to a 96-well flow cytometry plate. After centrifugation, the gradiently diluted sample to be tested was added, and incubated at 4° C. for 30 minutes. Washing was carried out twice with PBS, and a fluorescent secondary antibody diluted to an appropriate concentration was added, incubated at 4° C. for 30 minutes, and washed twice with PBS. […]

Test [7] shares this target. As to the kind of experiment: flow cytometry blocking assay: binding of human CD155 protein with mouse IgG2a Fc tag to CHO cells overexpressing human TIGIT, median fluorescence intensity APC-A; unit from the concentration axis. The method, then: as §2
The target is the same in test [8]. As to the kind of experiment: flow cytometry on CHO cells overexpressing human TIGIT, median fluorescence intensity PE-A; unit from the concentration axis.
From the text: as §1

Test [9] addresses T5, mouse PVRIG overexpressed on CHO cells (mouse, UniProt A0A1B0GS01 1-234).
T5 construct: also called CHO-muPVRIG cells
T5 sequence: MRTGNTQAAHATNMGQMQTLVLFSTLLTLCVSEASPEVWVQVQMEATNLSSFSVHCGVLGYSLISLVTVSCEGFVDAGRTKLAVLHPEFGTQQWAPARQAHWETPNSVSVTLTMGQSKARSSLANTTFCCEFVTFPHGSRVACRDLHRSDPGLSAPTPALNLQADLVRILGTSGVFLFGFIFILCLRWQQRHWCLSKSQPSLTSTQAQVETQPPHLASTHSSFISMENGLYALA
Briefly: flow cytometry, CHO-muPVRIG cells. The method, then: (§5) The overexpressing cells were expanded and adjusted to an appropriate cell density, and added to a 96-well flow cytometry plate. After centrifugation, the cells were added with a gradiently diluted sample to be tested, and incubated at 4° C. for 30 minutes. The cells were washed twice with PBS, and added with a fluorescent secondary antibody correspondingly diluted to an appropriate concentration, then incubated at 4° C. for 30 minutes, and washed twice with PBS. Cells were resuspended with PBS, and detected on a CytoFlex flow cytometer, and the corresponding MFI was calculated. Graphpad software was used for graphical analysis to obtain EC₅₀ values.

Test [10] has as its target T6, human PVRIG protein with mouse IgG2a Fc tag (human; mouse, UniProt Q6DKI7 41-171, limits assumed).
T6 construct: Whole entry named; not shown: mouse IgG2a Fc tag
T6 sequence (looked up): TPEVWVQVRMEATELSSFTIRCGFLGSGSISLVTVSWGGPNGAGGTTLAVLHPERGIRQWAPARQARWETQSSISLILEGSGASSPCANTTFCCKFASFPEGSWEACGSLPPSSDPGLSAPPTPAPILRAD
As to the kind of experiment: flow cytometry, competition: human PVRIG-mouse IgG2a Fc (1 ug/mL) binding to CHO-huCD112 cells. The method, then: Specifically, CHO cells overexpressing human CD112 (CHO-huCD112 cells) were generated by transfection of the pCHO1.0 vector (purchased from Invitrogen) with cDNA encoding human CD112 cloned into the multiple cloning site (MCS), respectively, followed by pressure screening. The CHO-huCD112 cells were expanded and adjusted to a cell density of 2×10⁶ cells/mL, added to a 96-well flow plate at 100 μL/well, and centrifuged for later use. The purified monoclonal antibody was gradient diluted with PBS and the diluted sample was added to a blank 96-well flow plate at 60 μL/well. […] The above incubated samples were added at 100 μL/well to the 96-well flow plate containing CHO-huCD112 cells, incubated at 4° C. for 30 min and washed twice with PBS. APC-conjugated goat anti-mouse IgG antibody diluted 100-fold with PBS was added at 100 μL/well, incubated at 4° C. for 30 minutes and washed twice with PBS. Cells were resuspended with PBS at 100 μL/well, and detected on a CytoFlex flow cytometer, and the corresponding MFI was calculated.

Test [11] deals with Biotin-labeled mouse PVRIG huFc protein (mouse). Briefly: competition ELISA: biotin mouse PVRIG-huFc binding to coated mouse CD112-his. Here is the method: Specifically, mouse CD112-his protein diluted with 1× coating buffer to a final concentration of 1 μg/mL was added to the ELISA plate at 100 μL/well, covered with the film, and coated overnight at 4° C. The coating solution in the ELISA plate was discarded, and the ELISA plate was washed three times with 1×PBST and was blocked with 5% BSA/PBS at 200 μL/well for 2 hours at room temperature. During the blocking period, the samples to be tested were gradient diluted with 1% BSA/PBS to a final volume of 60 μL/well. […] The blocking solution in the ELISA plate was discarded, and the above sample mixture was added at 100 μL/well and incubated for 2 hours at room temperature. The above co-incubated samples were discarded, the ELISA plate was washed three times with 1×PBST, and SA-HRP diluted with 1% BSA/PBS was added at 100 μL/well and incubated for 1 hour at room temperature. The SA-HRP dilution was discarded, the ELISA plate was washed three times with 1×PBST, ELISA Chromogen Solution was added at 100 μL/well and incubated for 1-3 minutes at room temperature, ELISA stopping solution was added at 50 μL/well and the absorbance values were read at 450 nm.

The target of test [12] is T7, human PVRIG expressed on cells (human, UniProt Q6DKI7 41-326).
T7 construct: whole, on cells; cDNA encoding human PVRIG in pCHO1.0 for CHO cells; also called CHO-huPVRIG cells
T7 sequence (looked up): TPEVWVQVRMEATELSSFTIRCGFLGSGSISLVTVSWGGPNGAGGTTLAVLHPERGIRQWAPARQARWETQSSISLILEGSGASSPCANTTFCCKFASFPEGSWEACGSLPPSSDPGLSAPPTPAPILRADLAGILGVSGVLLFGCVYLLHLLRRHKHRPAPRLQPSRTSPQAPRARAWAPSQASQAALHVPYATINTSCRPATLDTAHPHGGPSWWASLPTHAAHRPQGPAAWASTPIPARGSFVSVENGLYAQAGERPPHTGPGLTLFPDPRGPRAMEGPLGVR
Briefly: flow cytometry, CHO-huPVRIG cells. Here is the method:
as §5

For test [13], the target named is T8, cynomolgus PVRIG overexpressed on CHO cells (cynomolgus, UniProt A0A2K5WVV8 1-322).
T8 construct: whole, on cells; also called CHO-cynoPVRIG cells
T8 sequence: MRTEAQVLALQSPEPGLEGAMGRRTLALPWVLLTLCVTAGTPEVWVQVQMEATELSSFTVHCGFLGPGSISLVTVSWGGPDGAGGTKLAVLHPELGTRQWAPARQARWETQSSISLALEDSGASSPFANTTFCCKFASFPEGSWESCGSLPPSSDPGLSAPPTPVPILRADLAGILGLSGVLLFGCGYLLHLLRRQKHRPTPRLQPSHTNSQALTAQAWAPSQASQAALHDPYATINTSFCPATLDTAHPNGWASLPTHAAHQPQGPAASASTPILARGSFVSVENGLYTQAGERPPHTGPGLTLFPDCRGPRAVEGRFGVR
As to the kind of experiment: flow cytometry, CHO-cynoPVRIG cells. The method, then: as §5

T2 sequence (A0A7N9I9V4 entry or part of it): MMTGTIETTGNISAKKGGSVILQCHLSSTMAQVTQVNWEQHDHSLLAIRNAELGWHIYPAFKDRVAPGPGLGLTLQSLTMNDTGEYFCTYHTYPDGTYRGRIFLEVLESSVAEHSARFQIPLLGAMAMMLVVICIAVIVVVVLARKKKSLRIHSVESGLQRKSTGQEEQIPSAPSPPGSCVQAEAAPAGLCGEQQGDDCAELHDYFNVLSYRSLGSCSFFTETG
T3 sequence (chain, as listed by the source): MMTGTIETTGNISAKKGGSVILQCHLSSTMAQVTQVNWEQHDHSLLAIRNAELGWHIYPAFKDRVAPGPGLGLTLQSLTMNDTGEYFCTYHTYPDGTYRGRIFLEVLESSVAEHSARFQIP

B1: Tiragolumab (antibody, V domains shown)
VH: EVQLQQSGPGLVKPSQTLSLTCAISGDSVSSNSAAWNWIRQSPSRGLEWLGKTYYRFKWYSDYAVSVKGRITINPDTSKNQFSLQLNSVTPEDTAVFYCTRESTTYDLLAGPFDYWGQGTLVTVSS
VL: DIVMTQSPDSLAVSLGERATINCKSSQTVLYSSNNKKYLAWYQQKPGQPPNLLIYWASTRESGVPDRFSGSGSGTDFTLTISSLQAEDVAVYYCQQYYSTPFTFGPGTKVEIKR
For B1, the EC50 (in general, the concentration that produces a half-maximal response) in [1] came out at 1.35 nM; in [3], 4.18 nM; in test [4], 4.18 nM; in [6] it was 0.274 nM; in test [8], 1.34 nM. In addition, the results for the IC50 in test [2] and in test [7] were 0.63 nM and 0.634 nM, respectively. Moreover, the equilibrium dissociation constant (Kd) – broadly, a measure of binding affinity in units of concentration – in [5] was 3.5 nM; in the test with human TIGIT-his protein, 0.87 nM.

B2: anti-PVRIG monoclonal antibody ADI-56127-G1 (antibody, human IgG1, V domains shown)
VH: QVQLVQSGAEVKKPGSSVKVSCKASGGTESVDAISWVRQAPGQGLEWMGDIIPFFDTDYAQKFQGRVTITADESTSTAYMELSSLRSEDTAVYYCAREGGTSWTHFFDLWGRGTLVTVSS
VL: not shown
notes: Wild-type human IgG1 heavy chain constant region, human kappa light chain constant region; HEK293
For B2, the values for the EC50 in test [9], in test [12] and in test [13] were 6.47 nM, 2.51 nM and 1.96 nM, respectively. For the same molecule, the IC50 (usually the concentration that inhibits the measured activity by half) in test [10] was 1.23 nM; in test [11] it was 1.57 nM.

B3: anti-PVRIG monoclonal antibody ADI-56127-G1LALA (antibody, human IgG1, V domains shown)
VH: B2 VH
VL: not shown
notes: Human IgG1 heavy chain constant region modified by L234A, L235A; human kappa light chain constant region; HEK293
On to B3, for which the concentration giving a half-maximal response (EC50) in test [9] is 5.38 nM; in test [12], 2.44 nM; in [13] it was 1.98 nM. In addition, the results for the IC50 in [10] and in test [11] were 1.36 nM and 1.78 nM, respectively.

Values taken from US20250223354A1 (BIOTHEUS, published 2025).
